Measurements as given in US20070014736A1, “Methods of delivering corticotroph-derived glycoprotein hormone” (priority 2005, published 2007).

Assays:
[1] = test system: LPS-induced mild endotoxemia mouse model; assay: LPS-induced mild endotoxemia mouse model, serum cytokines; type: in vivo, mice
Method: An in vivo experiment was designed to examine the effect of CGH in a mouse model of LPS-induced mild endotoxemia. This model mimics acute endotoxemia/sepsis by challenging mice with a low, non-lethal dose of bacterial endotoxin (lipopolysaccharide, LPS). Serum is collected at various timepoints (1-8 hours) after intraperitoneal LPS injection and analyzed for altered expression of a wide variety of pro- and anti-inflammatory cytokines and acute phase proteins that mediate the inflammatory response. The model provides a means to assess the potential anti-inflammatory effects of therapeutic candidates during a robust inflammatory response. To initially assess the model, we measured proinflammatory cytokines in a pilot experiment to collect reference data for the model.
C57B1/6 mice (Charles River Laboratories; 5 mice/group) were treated i.p. with PBS, 0.2 mg/kg CGH in PBS, or 2 mg/kg CGH in PBS 1 hour prior to LPS challenge. The mice were then challenged with 25 ug of LPS i.p. and bled at 1 hour and 4 hours after LPS injection. Serum was analyzed for TNF[…] (1 hour) and IL-6 (4 hours) levels by ELISA.
To determine if CGH would potentiate the effect of a sub-maximal dose of glucocorticoid, groups of 10 C57B1/6 mice each were treated i.p. with PBS, 0.15 or 1.5 mg/kg Dex, 2 mg/kg CGH, or a combination of CGH and low or high doses of Dex, 1 hour prior to injection of 25 ug LPS i.p. As shown in TABLE 3 (Expt #2), either 2 mg/kg CGH or 1.5 mg/kg Dex treatment alone (1 hour prior to LPS) caused a significant drop in serum TNFα levels at 1 hour, as observed in previous experiments. The effects of CGH administered in conjunction with Dex on inhibition of TNFα production were greater than either dose of Dex alone.

[2] = test system: Delayed Type Hypersensitivity (DTH) reaction; assay: Delayed Type Hypersensitivity (DTH), change in ear thickness; type: in vivo, mice
[3] = test system: neutrophil infiltration in the ears; assay: Neutrophil (Gr-1) histomorphometry of ears in DTH experiment #1; type: in vivo, mice
Method: Ears from mice in DTH experiment #1 were analyzed by immunohistochemistry to assess which cell types were most affected by CGH treatment. Ears were fixed in Zinc/Tris buffer (2.3 mM calcium acetate/31.6 mM zinc acetate/36.7 mM zinc chloride in 0.1M Tris-HCL buffer, pH 7.4) for 24 hours at room temperature and stained with antibodies specific for CD4, CD8, CD11c, and Gr-1 (neutrophils). […] Ears were stained using a TechMate 500 autoimmunostainer (Biotech/Ventana) MIP protocol with some modifications. […] This step was followed, after a wash, by biotinylated rabbit anti-rat IgG secondary antibody (Dako, used at 10 ug/ml in PBS with 2% normal rabbit serum and 2% nonfat dry milk) for 45 min. The sections were then washed and treated with HP Block (1.5% H2O2 in 50% methanol) 3 times, 7 min each, followed by 25 min in avidin-biotin complex, 3 times of 4 min each in DAB (Diaminobenzidine), then with Methyl green for 10 min.
From this staining procedure, there was a clear reduction in the number of neutrophils infiltrating the ears of those mice treated with CGH or Dex, compared to the PBS-treated controls. Histomorphometry was performed to obtain the average pixel density of neutrophils per unit length (1 mm) present in the ear samples. Despite a fair amount of variability among each group, there was a significant reduction in neutrophil staining in the Dex and low dose CGH groups, as well as a nearly significant (p=0.0507) reduction in the high dose CGH group (see TABLE 5, p values).

thymus = test system: thymus; set-up: species or system mice; details: mouse, in vivo
Source text: Since the receptor for CGH, TSH-R, is expressed by the adrenal glands, there was concern that the anti-inflammatory effects observed might be an indirect effect of increasing endogenous corticosteroid production in CGH-treated mice. One well-established side effect of increasing either exogenous or endogenous corticosteroid levels is substantial atrophy of the thymus, as the developing T cells are induced to undergo apoptosis. Therefore, the thymuses of the CGH and Dex-treated mice in the DTH experiments were analyzed. […] Thus, CGH seems to be mediating its anti-inflammatory effects in a manner distinct from that of exgenous glucocorticoids like Dex.

[4] = Expt 1, 0.2 mg/kg CGH i.p. 1 hr prior to LPS
[5] = Expt 1, 2 mg/kg CGH i.p. 1 hr prior to LPS
[6] = Expt 1, 0.2 mg/kg CGH i.p. at challenge (d7), 24 h
[7] = Expt 1, 2.0 mg/kg CGH i.p. at challenge (d7), 24 h
[8] = Expt 2, 0.2 mg/kg CGH i.p. at challenge (d7)
[9] = Expt 2, 2.0 mg/kg CGH i.p. at challenge (d7)
[10] = Expt 3, 0.2 mg/kg CGH i.p. at sensitization (d0-4)
[11] = Expt 3, 2.0 mg/kg CGH i.p. at sensitization (d0-4)
[12] = 0.2 mg/kg CGH i.p. at challenge (day 7)
[13] = 2 mg/kg CGH i.p. at challenge (day 7)

B1: CGH: heterodimeric protein hormone comprised of alpha subunit GPHA2 and beta subunit GPHB5, recombinantly produced in CHO cells (protein)
chain 1: QEAVIPGCHLHPFNVTVRSDRQGTCQGSHVAQACVGHCESSAFPSRYSVLVASGYRHNITSVSQCCTISGLKKVKVQLQCVGSRREELEIFTARACQCDMCRLSRY
chain 2: ASSGNLRTFVGCAVREFTFLAKKPGCRGLRITTDACWGRCETWEKPILEPPYIEAHHRVCTYNETKQVTVKLPNCAPGVDPFYTYPVAIRCDCGACSTATTECETI
reduction of TNFα induction ([1]; 2 mg/kg CGH, 1 hour time point, Expt 1): about 60%
increase of serum IL-6 levels ([1]; 2 mg/kg CGH, 4 hour time point, Expt 1): about 70%
IL-6, 4 hours [1, 4]: 49.7 ± 3.1 ng/mL
TNFα, 1 hour [1, 4]: 3916 ± 1057 pg/mL
IL-6, 4 hours [1, 5]: 71.1 ± 12.9 ng/mL
TNFα, 1 hour [1, 5]: 2290 ± 530 pg/mL
IL-6, 4 hours ([1]; Expt 2, 2 mg/kg CGH): 57.1 ± 16.2 ng/mL
TNFα, 1 hour ([1]; Expt 2, 2 mg/kg CGH): 2274 ± 524 pg/mL
Change in ear thickness, left ear (PBS) [2, 6]: 0.17 +/− 0.95 ×10^−3 inch
Change in ear thickness, right ear (OVA) [2, 6]: 3.48 +/− 0.79 ×10^−3 inch
Change in ear thickness, left ear (PBS) [2, 7]: 0.21 +/− 0.34 ×10^−3 inch
Change in ear thickness, right ear (OVA) [2, 7]: 2.48 +/− 1.05 ×10^−3 inch
Change in ear thickness, left ear (PBS) [2, 8]: 0.65 +/− 0.63 ×10^−3 inch
Change in ear thickness, right ear (OVA) [2, 8]: 4.41 +/− 0.95 ×10^−3 inch
Change in ear thickness, left ear (PBS) [2, 9]: 0.67 +/− 1.05 ×10^−3 inch
Change in ear thickness, right ear (OVA) [2, 9]: 3.92 +/− 1.00 ×10^−3 inch
Change in ear thickness, left ear (PBS) [2, 10]: 1.31 +/− 0.42 ×10^−3 inch
Change in ear thickness, right ear (OVA) [2, 10]: 4.06 +/− 0.73 ×10^−3 inch
Change in ear thickness, left ear (PBS) [2, 11]: 1.11 +/− 0.49 ×10^−3 inch
Change in ear thickness, right ear (OVA) [2, 11]: 4.57 +/− 1.58 ×10^−3 inch
Pixel density: Neutrophils, left ear (PBS) [3, 12]: 544 +/− 1044
Pixel density: Neutrophils, right ear (OVA) [3, 12]: 5605 +/− 3725
Pixel density: Neutrophils, left ear (PBS) [3, 13]: 273 +/− 399
Pixel density: Neutrophils, right ear (OVA) [3, 13]: 5535 +/− 5331
relative proportion of each thymocyte subset vs PBS-treated group (thymus): not significantly different
